Each block holds one molecule with its values, some of them ahead of it. Non-standard residues stand in square brackets, D forms with d. NMeI = CC[C@H](C)[C@H](NC)C(=O)O; NMeK = CN[C@@H](CCCCN)C(=O)O; NMeS = CN[C@@H](CO)C(=O)O
Assays:
[1] = molecular target: T1, human LRP6 construct E1 (amino acids A20-D325) (human, UniProt O75581 20-325); experiment: synthetic peptides, competition IC50 (FIG. 18)
T1 construct: range 20-325; In the Fab crystal E1 arose from E1E2 degraded beyond Arg 335; residues Ala20 to Lys324 were traced; also called LRP6 E1; E1 domain
T1 sequence (looked up): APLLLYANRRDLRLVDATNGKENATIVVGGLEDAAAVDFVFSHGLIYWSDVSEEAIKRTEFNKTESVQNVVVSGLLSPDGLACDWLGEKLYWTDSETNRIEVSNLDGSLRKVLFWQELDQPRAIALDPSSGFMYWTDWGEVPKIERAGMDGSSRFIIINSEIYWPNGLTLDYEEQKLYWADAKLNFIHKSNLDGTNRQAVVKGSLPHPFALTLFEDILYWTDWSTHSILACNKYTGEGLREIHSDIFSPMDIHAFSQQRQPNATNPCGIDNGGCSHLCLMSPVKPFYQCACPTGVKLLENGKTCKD

[2] = molecular target: T2, human LRP6 construct E1E2 (amino acids A20-E631) (human, UniProt O75581 20-631, biotinylated for biolayer interferometry); experiment: BLI affinity
T2 construct: range 20-631; also called LRP6 E1E2
T2 sequence (looked up): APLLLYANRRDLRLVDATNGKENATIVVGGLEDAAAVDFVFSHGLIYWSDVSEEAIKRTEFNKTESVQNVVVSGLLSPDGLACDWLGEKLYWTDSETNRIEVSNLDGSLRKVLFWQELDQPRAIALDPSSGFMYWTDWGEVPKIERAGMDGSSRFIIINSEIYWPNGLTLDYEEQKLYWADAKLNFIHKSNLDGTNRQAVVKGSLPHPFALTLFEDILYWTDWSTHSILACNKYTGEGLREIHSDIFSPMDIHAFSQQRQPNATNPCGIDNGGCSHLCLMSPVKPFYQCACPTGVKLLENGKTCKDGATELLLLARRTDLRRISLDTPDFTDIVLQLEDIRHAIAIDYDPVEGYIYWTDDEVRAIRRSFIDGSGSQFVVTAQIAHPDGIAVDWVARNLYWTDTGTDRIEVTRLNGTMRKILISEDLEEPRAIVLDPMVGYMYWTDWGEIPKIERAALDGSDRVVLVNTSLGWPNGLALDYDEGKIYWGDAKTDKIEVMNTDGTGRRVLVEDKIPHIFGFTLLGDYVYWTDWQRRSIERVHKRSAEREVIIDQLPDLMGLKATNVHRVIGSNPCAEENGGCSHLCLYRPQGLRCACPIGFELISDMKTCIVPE
Procedure: (§1) Binding kinetics were measured by biolayer interferometry using an Octet Red instrument (ForteBio) as previously described (11). Streptavidin (SA) biosensors were loaded with biotinylated hLRP6 in 50 mMTris, pH 8, 300 mM NaCl, 5% (v/v) glycerol, and 0.05% (w/v) Triton X-100. The loaded biosensors were washed in the same buffer before carrying out association and dissociation measurements for the indicated times. The Kd of each interaction was determined using steady state-analysis through the Octet Red software v6.3. Each reported value represents an average of three or more experiments at different concentrations, with a fitted experimental curve for which the square of the correlation coefficient (R²) is above 0.96.

LRP6 E1E2 = molecular target: T3, LRP6 E1E2 (Homo sapiens, UniProt O75581); experiment: Biolayer interferometry binding to LRP6 E1E2
T3 construct: construct E1E2-amino acids A20-E631 of LPR6; made in house; host or cells: Tni insect cells (baculovirus, secreted)
T3 sequence (O75581 20-631): T2 sequence (looked up)
Procedure: as §1, with “(R^2)” for “(R²)”
(§2) The interaction of the different Dkks and sclerostin with various domains of LRP6 was measured using a biolayer interferometry assay (11). Purified receptors contained individual β-propeller-EGF-like units (E1, E2, or E4), two β-propellers (E1E2 or E3E4), or four β-propellers (E1E4))—as follows:
(§3) Human LRP6: construct E1E4-amino acids A20-Q1253 of LPR6; construct E1E2-amino acids A20-E631 of LPR6; construct E3E4 amino acids E631-Q1253 of LPR6; construct E1-amino acids A20-D325 of LPR6; construct E2-amino acids […]-E631 of LPR6; construct E4-T933-Q1253. The individual LRP6 β-propeller E3 could not be expressed.

LRP6 E3E4 = molecular target: T4, LRP6 E3E4 (Homo sapiens, UniProt O75581); experiment: Biolayer interferometry binding to LRP6 E3E4
T4 construct: construct E3E4 amino acids E631-Q1253 of LPR6; made in house; host or cells: Tni insect cells (baculovirus, secreted)
T4 sequence (O75581 631-1253): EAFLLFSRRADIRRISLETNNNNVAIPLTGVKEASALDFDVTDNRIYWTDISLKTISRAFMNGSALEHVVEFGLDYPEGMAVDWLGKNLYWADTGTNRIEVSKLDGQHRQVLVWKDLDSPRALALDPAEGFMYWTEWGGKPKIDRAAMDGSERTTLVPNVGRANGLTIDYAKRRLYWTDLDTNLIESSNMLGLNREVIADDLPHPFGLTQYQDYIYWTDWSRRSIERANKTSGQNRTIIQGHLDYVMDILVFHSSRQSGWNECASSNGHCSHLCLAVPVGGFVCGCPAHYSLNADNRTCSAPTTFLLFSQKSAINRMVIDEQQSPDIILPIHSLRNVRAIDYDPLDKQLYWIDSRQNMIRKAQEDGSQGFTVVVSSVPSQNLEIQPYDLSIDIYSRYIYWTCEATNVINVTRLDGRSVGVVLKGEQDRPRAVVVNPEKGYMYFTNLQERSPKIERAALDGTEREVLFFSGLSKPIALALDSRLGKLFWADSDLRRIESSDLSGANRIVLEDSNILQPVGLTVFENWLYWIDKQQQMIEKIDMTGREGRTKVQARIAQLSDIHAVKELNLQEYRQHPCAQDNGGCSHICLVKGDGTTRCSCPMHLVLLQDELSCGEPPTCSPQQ
Procedure: as §1, with “(R^2)” for “(R²)”
as §2, §3

LRP6 E1E4 = molecular target: T5, LRP6 E1E4 (Homo sapiens, UniProt O75581); experiment: Biolayer interferometry binding to LRP6 E1E4
T5 construct: construct E1E4-amino acids A20-Q1253 of LPR6; made in house; host or cells: Tni insect cells (baculovirus, secreted)
T5 sequence (O75581 20-1253): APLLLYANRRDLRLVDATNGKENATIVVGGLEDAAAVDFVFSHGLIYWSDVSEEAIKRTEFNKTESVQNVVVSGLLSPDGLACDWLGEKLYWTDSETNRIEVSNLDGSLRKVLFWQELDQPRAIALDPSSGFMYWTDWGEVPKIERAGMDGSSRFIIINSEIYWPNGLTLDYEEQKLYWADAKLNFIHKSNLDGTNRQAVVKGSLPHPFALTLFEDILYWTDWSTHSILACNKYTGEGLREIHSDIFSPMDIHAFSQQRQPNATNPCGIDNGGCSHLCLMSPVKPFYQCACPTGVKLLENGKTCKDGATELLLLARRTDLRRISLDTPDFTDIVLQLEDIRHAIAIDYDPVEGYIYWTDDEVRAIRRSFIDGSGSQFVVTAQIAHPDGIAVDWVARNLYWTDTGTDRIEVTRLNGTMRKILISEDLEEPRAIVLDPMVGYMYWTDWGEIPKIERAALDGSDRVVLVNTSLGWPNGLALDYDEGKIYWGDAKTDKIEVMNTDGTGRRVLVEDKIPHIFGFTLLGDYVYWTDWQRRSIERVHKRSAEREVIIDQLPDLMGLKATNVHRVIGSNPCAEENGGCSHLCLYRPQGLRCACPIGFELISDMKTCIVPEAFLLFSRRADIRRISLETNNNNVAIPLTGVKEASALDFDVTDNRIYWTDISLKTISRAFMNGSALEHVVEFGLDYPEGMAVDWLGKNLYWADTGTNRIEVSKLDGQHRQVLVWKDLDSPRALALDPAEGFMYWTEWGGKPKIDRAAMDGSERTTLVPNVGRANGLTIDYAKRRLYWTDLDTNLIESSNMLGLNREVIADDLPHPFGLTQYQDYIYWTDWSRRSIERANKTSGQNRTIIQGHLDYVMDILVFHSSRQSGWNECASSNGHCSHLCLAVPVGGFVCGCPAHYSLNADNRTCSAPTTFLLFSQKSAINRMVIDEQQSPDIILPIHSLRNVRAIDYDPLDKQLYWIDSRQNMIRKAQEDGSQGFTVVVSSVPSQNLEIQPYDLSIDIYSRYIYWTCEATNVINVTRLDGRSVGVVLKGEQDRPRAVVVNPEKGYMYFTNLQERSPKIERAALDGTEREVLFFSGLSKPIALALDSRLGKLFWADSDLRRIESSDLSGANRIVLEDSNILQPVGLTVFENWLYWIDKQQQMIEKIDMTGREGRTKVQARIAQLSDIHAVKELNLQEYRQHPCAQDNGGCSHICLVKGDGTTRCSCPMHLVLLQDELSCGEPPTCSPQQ
Procedure: as §1, with “(R^2)” for “(R²)”
as §2, §3

binding result [1]: no binding
B1: Ac-NSIKGY-am with an Nα-methyl amino acid at the K position (peptide)
peptide: Ac-NSI[NMeK]GY-NH2
SMILES: CC[C@H](C)[C@H](NC(=O)[C@H](CO)NC(=O)[C@H](CC(N)=O)NC(C)=O)C(=O)N(C)[C@@H](CCCCN)C(=O)NCC(=O)N[C@@H](Cc1ccc(O)cc1)C(N)=O

fold loss in affinity against wild-type Dkk1 [2]: 75 fold
binding to LRP6 E1E2 (in words) (LRP6 E1E2): affect binding
binding to LRP6 E3E4 (in words) (LRP6 E3E4): not to E3E4
binding to LRP6 E1E4 (in words) (LRP6 E1E4): retain binding
B2: Dkk1 Asn40Ala (ligand, human, UniProt O94907 32-266, looked up)
chain: TLNSVLNSAAIKNLPPPLGGAAGHPGSAVSAAPGILYPGGNKYQTIDNYQPYPCAEDEECGTDEYCASPTRGGDAGVQICLACRKRRKRCMRHAMCCPGNYCKNGICVSSDQNHFRGEIEETITESFGNDHSTLDGYSRRTTLSSKMYHTKGQEGSVCLRSSDCASGLCCARHFWSKICKPVLKEGQVCTKHRRKGSHGLEIFQRCYCGEGLSCRIQKDHHQASNSSRLHTCQRH
notes: also called Dkk1 N40A

binding result [1]: no binding
B3: Ac-NSIKGY-am with an Nα-methyl amino acid at the S position (peptide)
peptide: Ac-N[NMeS]IKGY-NH2
SMILES: CC[C@H](C)[C@H](NC(=O)[C@H](CO)N(C)C(=O)[C@H](CC(N)=O)NC(C)=O)C(=O)N[C@@H](CCCCN)C(=O)NCC(=O)N[C@@H](Cc1ccc(O)cc1)C(N)=O

binding result [1]: binds
B4: Ac-NSIKGY-am (peptide)
peptide: Ac-NSIKGY-NH2
notes: also called minimized analogue of the Dkk1 peptide; Lys parent

binding result [1]: no binding
Molecule: Ac-NSEKGY-NH2 [Ac-NSIKGY-am with Glu in place of Ile]

binding result [1]: no binding
Molecule: Ac-QSIKGY-NH2 [Ac-NSIKGY-am with Gln in place of Asn]

binding to LRP6 E1E2 (in words) (LRP6 E1E2): did not bind
binding to LRP6 E3E4 (in words) (LRP6 E3E4): very weak binding
binding to LRP6 E1E4 (in words) (LRP6 E1E4): very weak binding
B5: Dkk4: Dickkopf 4, carrier-free protein from R&D Systems (protein, UniProt Q9UBT3 19-224, looked up)
Dickkopf-related protein 4: LVLDFNNIRSSADLHGARKGSQCLSDTDCNTRKFCLQPRDEKPFCATCRGLRRRCQRDAMCCPGTLCVNDVCTTMEDATPILERQLDEQDGTHAEGTTGHPVQENQPKRKPSIKKSQGRKGQEGESCLRTFDCGPGLCCARHFWTKICKPVLLEGQVCSRRGHKDTAQAPEIFQRCDCGPGLLCRSQLTSNRQHARLRVCQKIEKL

binding result [1]: no binding
B6: Ac-NSIKGY-am with an Nα-methyl amino acid at the I position (peptide)
peptide: Ac-NS[NMeI]KGY-NH2
SMILES: CC[C@H](C)[C@@H](C(=O)N[C@@H](CCCCN)C(=O)NCC(=O)N[C@@H](Cc1ccc(O)cc1)C(N)=O)N(C)C(=O)[C@H](CO)NC(=O)[C@H](CC(N)=O)NC(C)=O

fold loss in affinity against wild-type sclerostin [2]: 14 fold
B7: Sclerostin Asn117Ala (ligand, UniProt Q9BQB4 24-213, looked up)
chain: QGWQAFKNDATEIIPELGEYPEPPPELENNKTMNRAENGGRPPHHPFETKDVSEYSCRELHFTRYVTDGPCRSAKPVTELVCSGQCGPARLLPAAIGRGKWWRPSGPDFRCIPDRYRAQRVQLLCPGGEAPRARKVRLVASCKCKRLTRFHNQSELKDFGTEAARPQKGRKPRPRARSAKANQAELENAY
notes: also called sclerostin N117A

From patent publication US20140235820A1, “METHODS AND COMPOSITIONS FOR MODULATING THE Wnt PATHWAY” (Genentech, Inc., priority 2010, published 2014)
